Experimental data as given in PMC9307980, “High-Affinity Single-Domain Antibodies for Analyzing Human Apo- and Holo-Transferrin” (Acta Naturae, 2022).

Key:
[1] = target: T1, holo-Transferrin human (Homo sapiens, UniProt P02787); assay: ITC; in solution, PBS pH 7.4, MicroCal PEAQ-ITC; fitting model: sequential binding sites, number of sites 2; conditions: both partners purified
T1 construct: human transferrin (serotransferrin), iron-saturated form, commercial preparation; same polypeptide as apo-Tf; also called holo-Tf; source: bought: Sigma-Aldrich

[2] = target: T2, apo-Transferrin human (Homo sapiens, UniProt P02787); assay: as above; conditions: both partners purified
T2 construct: human transferrin (serotransferrin), iron-free form, commercial preparation; Iron-free form of transferrin; same polypeptide as holo-Tf; also called apo-Tf; source: bought: Sigma-Aldrich
T2 sequence (P02787 20-698): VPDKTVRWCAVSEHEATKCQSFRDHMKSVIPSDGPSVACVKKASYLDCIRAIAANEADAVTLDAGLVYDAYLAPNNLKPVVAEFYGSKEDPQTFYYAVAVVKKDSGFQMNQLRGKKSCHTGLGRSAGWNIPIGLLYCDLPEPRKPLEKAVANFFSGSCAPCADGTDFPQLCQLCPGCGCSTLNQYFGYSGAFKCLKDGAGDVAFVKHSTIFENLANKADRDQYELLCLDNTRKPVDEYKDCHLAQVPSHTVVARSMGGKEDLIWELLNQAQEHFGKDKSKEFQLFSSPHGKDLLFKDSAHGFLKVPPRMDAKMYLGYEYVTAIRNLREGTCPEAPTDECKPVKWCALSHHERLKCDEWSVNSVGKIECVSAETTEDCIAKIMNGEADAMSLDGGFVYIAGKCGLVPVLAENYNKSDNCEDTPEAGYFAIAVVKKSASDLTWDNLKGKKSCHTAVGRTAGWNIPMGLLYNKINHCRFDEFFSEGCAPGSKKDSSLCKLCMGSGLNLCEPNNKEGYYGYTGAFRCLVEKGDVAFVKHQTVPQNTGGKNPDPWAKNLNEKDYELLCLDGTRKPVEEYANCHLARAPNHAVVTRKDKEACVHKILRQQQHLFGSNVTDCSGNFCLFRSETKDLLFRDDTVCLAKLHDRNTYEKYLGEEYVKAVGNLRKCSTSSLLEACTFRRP

T1 sequence (P02787 20-698): as above

B1: aTf1 nanobody (anti-human transferrin single-domain antibody) (VHH)
VHH: QVQLVESGGGLVQPGGSLTLSCAASGFTFSTYAMKWVRQAPGMGLEYVASINNGGTSTFYSASVKGRFTISRDNAKNTLYLQLNSLKTEDTAMYYCARINEYSTRGQGTQVTVSS
notes: variable domain of aTf1; HA-tag and His-tag follow it; source: generated in the bacterial periplasm, isolated and purified
- KD1 (sequential binding sites, site 1) [1]: ~0.44 nM
- KD2 (sequential binding sites, site 2) [1]: ~1.44 nM
- KD1 (sequential binding sites, site 1) [2]: ~99.4 nM

B2: aTf2 nanobody (anti-human transferrin single-domain antibody) (VHH)
VHH: QVQLVESGGGSVQAGGSLRLSCAVSGYMYSTNCMGWFRQAPGKEREGVAAIYTGGGSTYYPDSVKGRFTISQDNAKNTVYLQMNSLKPEDTAMYYCAAMRHCPYGGNWDHPVNYLGQGTQVTVSS
notes: variable domain of aTf2; long CDR3, cysteines in CDR1 and CDR3; HA-tag and His-tag follow it; source: generated in the bacterial periplasm, isolated and purified
- KD1 (sequential binding sites, site 1) [1]: ~0.94 nM
- KD2 (sequential binding sites, site 2) [1]: ~0.75 nM
- KD1 (sequential binding sites, site 1) [2]: ~0.82 nM
- KD2 (sequential binding sites, site 2) [2]: ~14.5 nM
